# Source: patent publication US20100068742
# “Also recorded” adds a separate entry of the source.
# Tests used:
# [1] = test system: LRRKtide with the +5 residue mutated to Pro
# [2] = test system: Nictide with Thr residues at both the -2 and +2 positions
# [3] = test system: LRRKtide with -2Tyr mutated to Arg
# [4] = test system: Nictide with -1 Tyr mutated to Ala
# [5] = test system: T1, Nictide (RLGWWRFYTLRRARQGNTKQR)
# T1 sequence: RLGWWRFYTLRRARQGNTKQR
# [6] = test system: Nictide with +2 Arg mutated to Ala
# [7] = test system: Nictide with Thr introduced at the -2 position
# [8] = test system: Nictide with +1Leu mutated to Pro
# [9] = test system: LRRKtide with the +2 residue mutated to Pro
# [10] = test system: Nictide with Thr introduced at the +2 position
# [11] = test system: Nictide peptides with combined -5, -4 and -1 mutations
# [12] = test system: LRRKtide with -5Arg mutated to Ala
# [13] = test system: Nictide with -5Trp mutated to Ala
# [14] = test system: LRRKtide with -2Tyr mutated to Ala
# [15] = test system: LRRKtide with +1Leu mutated to Ala
# [16] = test system: LRRKtide with the +5 residue mutated to Glu
# [17] = test system: LRRKtide with +2Arg mutated to Ala
# [18] = test system: LRRKtide with -4 (Asp) mutated to Ala
# [19] = test system: Nictide with the phosphorylated Thr mutated to Ser
# [20] = test system: LRRKtide with the +2 residue mutated to Glu
# [21] = test system: T2, LRRKtide peptide (RLGRDKYKTLRQIRQ)
# T2 sequence: RLGRDKYKTLRQIRQ
# [22] = test system: LRRKtide with -2Tyr mutated to Glu
# [23] = test system: LRRKtide with +5Arg mutated to Ala
# [24] = test system: Nictide with -4Trp mutated to Ala
substance,measurement,setting,value
GST-LRRK2 1326-2527 [G2019S],Km against wild type LRRKtide,[1],increased Km similarly to the Ala mutation
same,fold increase of Km against Nictide,[2],increased Km value of over 10-fold
same,Km against wild type LRRKtide,[3],slightly decreased Km
same,fold decrease of Vmax against wild type LRRKtide,[3],-2 Tyr (2 to 10-fold)
same,fold increase of Km against Nictide,[4],increased Km values 2 to 3-fold
same,fold increase of Vmax against Nictide,[4],enhanced Vmax of LRRK2 phosphorylation ~2-fold
same,Km of peptide phosphorylation,[5],Calculated Km values are 6micromolar for Nictide; also recorded: Km of 10 µM
same,Vmax of peptide phosphorylation,[5],Vmax of 26 U/mg
same,fold decrease of Km against LRRKtide,[5],20-fold lower than LRRKtide
same,fold increase of Vmax against LRRKtide,[5],1.7-fold higher than LRRKtide
same,fold decrease of Vmax against Nictide,[6],decreased the Vmax value of phosphorylation 2 to 5-fold
same,Km and Vmax against Nictide,[7],moderately increased the Km and reduced the Vmax value
same,Km against Nictide,[8],without affecting Km
same,fold decrease of Vmax against Nictide,[8],only decreased Vmax of LRRK2 phosphorylation under 2-fold
same,Km against wild type LRRKtide,[9],increased Km similarly to the Ala mutation
same,fold decrease of Vmax against wild type LRRKtide,[9],+2 Arg (4 to 28-fold)
same,Km and Vmax against Nictide,[10],moderately increased the Km and reduced the Vmax value
same,fold increase of Km against Nictide,[11],the Km values were substantially increased 5 to 20-fold compared to Nictide
same,fold increase of Km against wild type LRRKtide,[12],-5Arg (2.5 fold)
same,fold increase of Km against Nictide,[13],increasing the Km value 3-fold
same,fold increase of Vmax against Nictide,[13],enhanced Vmax of LRRK2 phosphorylation ~2-fold
same,fold decrease of Vmax against wild type LRRKtide,[14],-2 Tyr (2 to 10-fold)
same,fold increase of Km against wild type LRRKtide,[14],-2Tyr (2.4-fold)
same,fold decrease of Vmax against wild type LRRKtide,[15],+1Leu (2-fold)
same,peptide phosphorylation,[15],had no effect on LRRK2 phosphorylation
same,Km against wild type LRRKtide,[16],increased Km similarly to the Ala mutation
same,fold decrease of Vmax against wild type LRRKtide,[16],+5 Arg (mutation to Glu 4-fold)
same,fold decrease of Vmax against wild type LRRKtide,[17],+2 Arg (4 to 28-fold)
same,fold increase of Km against wild type LRRKtide,[17],+2Arg (4.5-fold)
same,fold decrease of Km against wild type LRRKtide,[18],decreasing Km 2.3-fold
same,peptide phosphorylation,[19],almost abolished phosphorylation of the peptide by LRRK2
same,Km against wild type LRRKtide,[20],increased Km similarly to the Ala mutation
same,fold decrease of Vmax against wild type LRRKtide,[20],+2 Arg (4 to 28-fold)
same,Km of peptide phosphorylation,[21],Km of 200 µM
same,Vmax of peptide phosphorylation,[21],Vmax of 14 U/mg
same,fold decrease of Vmax against wild type LRRKtide,[22],-2 Tyr (2 to 10-fold)
same,fold increase of Km against wild type LRRKtide,[22],increased Km 4.4-fold
same,fold increase of Km against wild type LRRKtide,[23],+5Arg (4-fold)
same,phosphorylation of GST fusion proteins (32P autoradiography),GST-Nictide,phosphorylated to a significantly greater extent by LRRK2 than the other GST-fusion proteins
same,fold decrease of Vmax against Nictide,[24],decreased the Vmax value of phosphorylation 2 to 5-fold
same,fold increase of Km against Nictide,[24],increased Km values 2 to 3-fold
same,fold increase of Vmax against Nictide,[24],enhanced Vmax of LRRK2 phosphorylation ~2-fold
